Results reported in patent US20250313626A1 (HARBOUR BIOMED SHANGHAI, published 2025).
Substitutions are numbered along the chain they refer to. One block for each binder: values may come before it.

How the values were obtained:
[1] = target: T1, human CD200R1 isoform a on CHOK1 cells (CHOK1/hCD200R1a) (human, UniProt Q8TD46 25-348); test: flow cytometry blocking assay: biotin-labelled human CD200 binding to CHOK1/hCD200R1a cells; y axis Inhibition %
T1 construct: also called CHOK1/CD200R1a
T1 sequence: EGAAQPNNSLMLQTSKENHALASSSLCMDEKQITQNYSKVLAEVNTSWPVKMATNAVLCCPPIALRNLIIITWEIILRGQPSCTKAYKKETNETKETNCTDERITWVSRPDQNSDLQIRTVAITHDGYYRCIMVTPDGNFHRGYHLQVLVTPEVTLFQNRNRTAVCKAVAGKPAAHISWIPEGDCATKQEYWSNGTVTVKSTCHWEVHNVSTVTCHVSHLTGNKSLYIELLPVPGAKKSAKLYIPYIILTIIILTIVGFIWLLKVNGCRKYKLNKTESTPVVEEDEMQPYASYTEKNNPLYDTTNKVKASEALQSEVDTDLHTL
Description: In brief, CHOK1/hCD200R1a cells were digested and resuspended in 2% BSA in PBS. […] The cells were placed at 4° C. and incubated for 1 hour in the dark. […] 100 μL/well of pre-cooled PBS containing 2% BSA was added to rinse the cells twice, centrifugation was performed at 500 g, 4° C. for 5 minutes, and the supernatant was discarded. Fluorescent secondary antibody (PE Streptavidin, BD, Cat #: 554061, 1:200) was added at 100 μL/well, and incubation was performed at 4° C. for 30 minutes in the dark. The cells were washed twice with 200 μL/well of pre-cooled PBS, and were centrifuged at 500 g, 4° C. for 5 minutes, and the supernatant was discarded. Finally, 200 μL/well of pre-cooled PBS was used to resuspend the cells, and the fluorescence signal values were read using ACEA Novocyte 3000 flow cytometer. IC50 values were calculated.

[2] = target: T2, cell surface glycoprotein CD200 receptor 2 isoform 1 precursor CD200R1L recombinant protein (Sino … (human, UniProt Q6Q8B3 24-239)); test: ELISA on plate-coated recombinant human CD200R1L
T2 construct: Bought protein; also called hCD200R1L; recombinant human CD200R1L protein
T2 sequence: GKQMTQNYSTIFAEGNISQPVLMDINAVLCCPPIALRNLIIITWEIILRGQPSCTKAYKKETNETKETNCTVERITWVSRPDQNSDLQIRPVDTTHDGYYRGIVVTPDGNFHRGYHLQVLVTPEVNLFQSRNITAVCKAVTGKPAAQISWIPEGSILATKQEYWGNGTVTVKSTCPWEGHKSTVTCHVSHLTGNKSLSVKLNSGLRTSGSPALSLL
Description: In specific, the cell surface glycoprotein CD200 receptor 2 isoform 1 precursor CD200R1L recombinant protein (Sino Biologicals, 11620-H08H, SEQ ID NO:174) were diluted with PBS to 1 μg/mL, and added to a 96-well plate (Corning, #9018) at 100 μl per well, and incubated overnight at 4° C. After the liquid was discarded, the plate was washed 3 times with PBST buffer (pH 7.4, containing 0.05% tween-20), 250 μl 2% BSA blocking solution was added into the plate and incubated at 37° C. for 1 hour. The blocking solution was discarded and the plate was washed 3 times with PBST buffer (pH 7.4, containing 0.05% Tween-20). The anti-CD200R1 antibodies were diluted and added at 100 µl/well, incubated at 37° C. for 1 hour, with isotype antibody as a control. After the plate was washed 3 times with PBST buffer (pH 7.4, containing 0.05% Tween-20), goat anti-human HRP secondary antibody (Invitrogen, #A18805) was diluted 5000 times, added into the plate and incubated for 1 hour at 37° C. in the dark. After the plate was washed with PBST buffer (pH 7.4, containing 0.05% tween-20) for 3 times, 100p/well of TMB (Biopanda, #TMB-S-003) was add and the plate was placed in the dark at room temperature for about 30 minutes; stop solution (BBI life sciences, #E661006-0200) was added at 50p/well to each well to terminate the reaction, and the absorbance (OD450) at 450 nm was measured in a microplate reader (PerkinElemer, #Enspire).

[3] = target: T3, human CD200R1a protein (soluble recombinant) (human, UniProt Q8TD46 29-265); test: BLI in-tandem competition on His-captured human CD200R1a; row = 1st Ab (400 nM); competitor (2nd Ab) PR007221
T3 construct: Soluble protein used in BLI; also called human CD200R1 isoform a; not shown: His tag implied by capture on anti-Penta-HIS biosensors
T3 sequence: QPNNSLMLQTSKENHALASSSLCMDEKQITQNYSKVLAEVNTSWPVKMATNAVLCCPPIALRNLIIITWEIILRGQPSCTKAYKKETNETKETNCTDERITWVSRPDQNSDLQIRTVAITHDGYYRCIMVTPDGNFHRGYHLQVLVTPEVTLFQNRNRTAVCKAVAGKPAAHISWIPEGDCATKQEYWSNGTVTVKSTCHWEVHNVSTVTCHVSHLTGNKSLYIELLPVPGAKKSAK
Description: To determine if the anti-CD200R1 antibodies bind to human CD200R1a on different or approximate binding epitopes, epitope competition experiments for the anti-CD200R1 antibodies were performed by the ForteBlio Octet® RED96e platform. […] The in-tandem competition assay format was applied, and it contained two association steps. Firstly, the antigen-loaded biosensors bound to each antibody (i.e., First antibody, 1st Ab) at a saturating concentration of 400 nM for 300 seconds to reach equilibrium and then secondly bound to the competing antibodies (i.e., Second antibody, 2nd Ab) of 400 nM for 300 seconds. The second binding signals are recorded as the 100% signal of each antibody when the first antibodies are replaced by kinetic buffer. All the binding data were analyzed using ForteBlio Data Analysis 11.0 software. The inhibition rate was calculated by the following formula: […]

B1: PR006480 (antibody, human IgG1, kappa, L234A L235A)
heavy: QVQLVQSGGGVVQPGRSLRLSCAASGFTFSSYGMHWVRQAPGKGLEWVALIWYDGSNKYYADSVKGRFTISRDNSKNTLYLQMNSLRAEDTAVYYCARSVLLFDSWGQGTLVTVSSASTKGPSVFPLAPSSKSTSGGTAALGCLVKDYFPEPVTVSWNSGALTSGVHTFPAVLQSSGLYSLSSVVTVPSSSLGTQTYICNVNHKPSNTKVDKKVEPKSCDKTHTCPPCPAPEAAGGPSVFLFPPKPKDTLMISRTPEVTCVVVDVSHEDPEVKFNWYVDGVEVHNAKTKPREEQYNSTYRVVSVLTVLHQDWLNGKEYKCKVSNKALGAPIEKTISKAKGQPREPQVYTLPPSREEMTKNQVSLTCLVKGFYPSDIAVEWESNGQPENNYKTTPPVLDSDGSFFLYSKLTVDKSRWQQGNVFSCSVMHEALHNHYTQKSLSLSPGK
light: DIQMTQSPPSLSASVGDRVTITCRASQSISSYLNWFQQKAGKAPKLLISATSNLQSGVPSRFSGSGSGTDFTLTISSLQPEDLATYYCQQSYSSPYTFGQGTKVEIKRTVAAPSVFIFPPSDEQLKSGTASVVCLLNNFYPREAKVQWKVDNALQSGNSQESVTEQDSKDSTYSLSSTLTLSKADYEKHKVYACEVTHQGLSSPVTKSFNRGEC
notes: also called PR6480
Blocking(Max) [1]: 61%

binding result [2]: no binding (tested: 100 nM)
B2: PR007221 (antibody, human IgG1, kappa)
heavy: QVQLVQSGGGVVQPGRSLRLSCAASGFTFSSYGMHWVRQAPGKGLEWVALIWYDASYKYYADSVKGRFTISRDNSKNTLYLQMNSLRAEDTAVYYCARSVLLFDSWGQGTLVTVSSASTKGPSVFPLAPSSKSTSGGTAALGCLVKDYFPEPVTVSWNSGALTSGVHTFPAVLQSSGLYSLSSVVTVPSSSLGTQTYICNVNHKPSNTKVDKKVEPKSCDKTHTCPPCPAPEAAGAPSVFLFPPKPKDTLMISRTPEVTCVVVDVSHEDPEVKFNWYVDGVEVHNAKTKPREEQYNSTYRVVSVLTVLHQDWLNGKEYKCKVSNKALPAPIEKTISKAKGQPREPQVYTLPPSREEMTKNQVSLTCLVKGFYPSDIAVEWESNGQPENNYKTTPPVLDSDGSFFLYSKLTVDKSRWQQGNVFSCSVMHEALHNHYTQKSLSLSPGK
light: B1 light with M4L, S91T, Y92L
notes: PTM variant of PR006895 (human IgG1)
Blocking(Max) [1]: 80.4% | Inhibition ratio (%) [3]: 100%

binding result [2]: no binding (tested: 100 nM)
B3: PR007223 (antibody, human IgG1, kappa)
heavy: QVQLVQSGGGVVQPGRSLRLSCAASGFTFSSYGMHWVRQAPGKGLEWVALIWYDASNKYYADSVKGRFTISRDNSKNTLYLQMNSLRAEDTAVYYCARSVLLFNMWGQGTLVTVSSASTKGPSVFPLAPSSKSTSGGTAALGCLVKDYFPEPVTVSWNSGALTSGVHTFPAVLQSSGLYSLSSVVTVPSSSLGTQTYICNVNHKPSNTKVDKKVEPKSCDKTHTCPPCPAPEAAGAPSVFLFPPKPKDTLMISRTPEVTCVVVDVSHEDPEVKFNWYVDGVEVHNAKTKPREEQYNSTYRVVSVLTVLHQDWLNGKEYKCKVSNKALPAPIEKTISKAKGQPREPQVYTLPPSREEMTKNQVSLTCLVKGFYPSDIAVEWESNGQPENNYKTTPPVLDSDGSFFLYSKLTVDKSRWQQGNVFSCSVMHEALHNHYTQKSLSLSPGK
light: B1 light with M4L, S91T
notes: as for B2
Blocking(Max) [1]: 88% | Inhibition ratio (%) [3]: 101%

binding result [2]: no binding (tested: 100 nM)
B4: PR007973 (antibody, human IgG1, kappa, V domains shown)
VH: QVQLVESGGGVVQPGRSLRLSCAASGFTFSSYGFHWVRQAPGKGLEWLGIIWSDASNKYYADSVKGRFTISRDNSKNTLYLQMNSLRAEDTAVYYCARDRIVGEGFDYWGQGTLVTVSS
VL: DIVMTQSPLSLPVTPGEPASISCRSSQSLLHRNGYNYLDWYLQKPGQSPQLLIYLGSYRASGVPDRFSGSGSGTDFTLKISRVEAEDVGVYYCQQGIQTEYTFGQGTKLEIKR
notes: PTM variant of PR006839 (human IgG1)
Inhibition ratio (%) [3]: 100%

B5: PR002906 (antibody, V domains shown)
VH: QVQLQESGPGLVKPSETLSLTCTVSGYTITSGYDWSWIRQPPGKGLEWIGYINYGGSTNYKPSLGSRVTISVDTSKNQFSLKLSSVTAADTAVYYCARYNEYKSYIYDWYFDFWGQGTLVTVSS
VL: DIQMTQSPSSLSASVGDRVTITCKASKNIRSYLAWYQQKPGKAPKLLIYSGSTLHSGVPSRFSGSGSGTDFTLTISSLQPEDFATYYCQQHHEYPLTFGQGTKVEIKR
notes: also called recombinant IgG1 antibody of huDX182
Blocking(Max) [1]: 95.4%
